Results: paper PMC2953525, “Subtle Alterations in PCNA-Partner Interactions Severely Impair DNA Replication and Repair” (PLoS Biology, 2010)
Where a chain is given by its changes, count along the chain named.

Assays:
[1] = target: Pol32 PIP peptide; assay: SPR analysis of PCNA binding to PIP peptide; set-up: species or system yeast; conditions: peptide 5-5,000 nM
Excerpt: (§1) To quantify differences in binding affinities of the PCNA mutants relative to the WT, we characterized four PCNA mutants with increased affinity for PIP peptides derived from Rad30, Pol32, Msh6, and Ung1 partners using SPR. These mutants were overexpressed in E. coli, purified by affinity chromatography, and immobilized on an SPR sensor chip for binding characterization. SPR binding analysis enabled direct and sensitive measurement of interaction affinities relative to the Y2H system and indicated an up to 8-fold increase in binding affinity for the different PIP peptides, relative to WT PCNA (Table 1). Such analysis allowed the detection of a significant decrease in the Rad30 PIP peptide dissociation rate in the Pol30-Rad30E9p mutant relative to the WT, indicating a ∼9-fold increase in the lifetime of the PCNA-Rad30 complex (see Table 1). Collectively the ELISA, Y2H, and SPR assays validated and quantified the increase in mutant PCNA binding affinities, relative to WT PCNA.
(§2) Protein interaction assays were carried out using the ProteOn XPR36 (Bio-Rad) instrument. WT or PCNA mutants (0.4 to 5.2 fmol) were immobilized on the surface of a GLM sensor chip by a carbodiimide-activated succinimide-coupling method, as specified by the manufacturer. All SPR experiments were performed by flowing 150 µl of the target peptide at a flow rate of 30 µl/min onto the PCNA-bound chip. Different concentrations (5–5,000 nM) of PIP peptides (Table 1) were injected over the PCNA chip, and binding parameters were determined using ProteOn XPR36 software (Bio-Rad). The ligand (PCNA) and analyte (peptide) buffers were PBST and 150 mM NaCl, 1 mM EDTA, 0.01% Tween-80, 30 mM Hepes, pH 7.5, respectively.

[2] = target: Msh6 PIP peptide; assay: SPR analysis of PCNA binding to PIP peptide; set-up: species or system yeast; conditions: peptide 5-5,000 nM
Excerpt: as §1, §2

[3] = target: Ung1 PIP peptide; assay: SPR analysis of PCNA binding to PIP peptide; set-up: species or system yeast; conditions: PCNA immobilized, peptide 5-5,000 nM, ProteOn XPR36; read-out: Binding affinity for Ung1 PIP peptide (SPR)
Excerpt: as §1, §2

[4] = target: T1, pol30-Msh6E6 (yeast, UniProt P15873 1-258, IDCL DIDADFLKIEEL to DYDKDLLKIIEL); assay: two-hybrid; pAD-GAL4-PCNA WT or mutant (called bait) and pBD-GAL4-partner (called prey) in strain YRG2; 10-fold serial dilutions spotted on SC-Leu-Trp-His plates, 30°C, 3 d; growth similar to WT PCNA is denoted 1; conditions: partners not purified
T1 construct: PCNA (POL30), yeast; source: yeast two-hybrid fusion (pAD-GAL4, strain YRG2)
T1 sequence: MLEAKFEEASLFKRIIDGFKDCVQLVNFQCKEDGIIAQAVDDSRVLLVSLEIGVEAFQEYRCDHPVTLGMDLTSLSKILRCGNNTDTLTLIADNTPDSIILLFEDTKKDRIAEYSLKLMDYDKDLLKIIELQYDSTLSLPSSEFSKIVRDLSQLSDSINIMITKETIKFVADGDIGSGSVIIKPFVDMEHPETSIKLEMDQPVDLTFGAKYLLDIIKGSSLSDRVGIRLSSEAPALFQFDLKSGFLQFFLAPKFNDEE

[5] = target: T2, pol30-Pol32E9 (yeast, UniProt P15873 1-258, IDCL DIDADFLKIEEL to DNDVDSLKIIEL); assay: as above; conditions: partners not purified
T2 construct: PCNA (POL30), yeast; source: yeast two-hybrid fusion (pAD-GAL4, strain YRG2)
T2 sequence: T1 sequence with Y121N, K123V, L125S

[6] = target: T3, pol30-Msh6E2 (yeast, UniProt P15873 1-258, IDCL DIDADFLKIEEL to DYDRDMLKISEL); assay: as above; conditions: partners not purified
T3 construct: PCNA (POL30), yeast; source: yeast two-hybrid fusion (pAD-GAL4, strain YRG2)
T3 sequence: T1 sequence with K123R, L125M, I129S

[7] = target: T4, pol30-79 (yeast, UniProt P15873 1-258, IDCL DIDADFLKIEEL to DIDADFAKAEEL); assay: two-hybrid; quantitative Y2H: generation time of the YRG2 strains in liquid SC-Leu-Trp-His, given relative to cells expressing WT PCNA; average of at least 3 experiments; conditions: partners not purified
T4 construct: PCNA (POL30), yeast; the changes are then L126A and I128A; also called PCNA79; source: yeast two-hybrid fusion (pAD-GAL4, strain YRG2)
T4 sequence: T1 sequence with Y121I, K123A, L125F, L126A, I128A, I129E

[8] = footnote d, PCNA immobilized on GLM chip

POL30: wild-type yeast PCNA (POL30), IDCL sequence DIDADFLKIEEL
Kd ([1]; PCNA immobilized, ProteOn XPR36, read-out: Binding affinity for Pol32 PIP peptide (SPR)): 360 nM | Kd ([2]; PCNA immobilized, ProteOn XPR36, read-out: Binding affinity for Msh6 PIP peptide (SPR)): 3000 nM | Kd [3]: 1200 nM

B1: pol30-Msh6E6: PCNA mutant evolved for Msh6, IDCL sequence DYDKDLLKIIEL (protein)
chain: T1 sequence
modifications: left off: Gal4 activation domain, end not stated, kept
Fold increase in binding affinity for Msh6 PIP peptide relative to WT PCNA (SPR) [2, 8]: 1.6 fold

B2: pol30-Pol32E9 (protein)
chain: T1 sequence with Y121N, K123V, L125S
modifications: left off: Gal4 activation domain, end not stated, kept
Fold increase in binding affinity for Pol32 PIP peptide relative to WT PCNA (SPR) [1, 8]: 2 fold

B3: Rad27 (natural protein, yeast, UniProt P26793 1-382, looked up)
chain: MGIKGLNAIISEHVPSAIRKSDIKSFFGRKVAIDASMSLYQFLIAVRQQDGGQLTNEAGETTSHLMGMFYRTLRMIDNGIKPCYVFDGKPPDLKSHELTKRSSRRVETEKKLAEATTELEKMKQERRLVKVSKEHNEEAQKLLGLMGIPYIIAPTEAEAQCAELAKKGKVYAAASEDMDTLCYRTPFLLRHLTFSEAKKEPIHEIDTELVLRGLDLTIEQFVDLCIMLGCDYCESIRGVGPVTALKLIKTHGSIEKIVEFIESGESNNTKWKIPEDWPYKQARMLFLDPEVIDGNEINLKWSPPKEKELIEYLCDDKKFSEERVKSGISRLKKGLKSGIQGRLDGFFQVVPKTKEQLAAAAKRAQENKKLNKNKNKVTKGRR
notes: Rad27 (endonuclease), yeast; also called pBD-Rad27; source: yeast two-hybrid fusion (pBD-GAL4, strain YRG2)
fold change in affinity relative to WT PCNA (Y2H) [4]: 1.3 fold | fold change in affinity relative to WT PCNA (Y2H) [5]: 1.2 fold | fold change in affinity relative to WT PCNA (Y2H) [6]: 1.3 fold | fold change in affinity relative to WT PCNA (Y2H generation time) [7]: 0.5 fold
